Results reported in the supplement of paper PMC12855868.

B1: library; numbered along this chain (parent)
chain: MAAAGGARLLRAASAVLGGPAGRWLHHAGSRAGSSGLLRNRGPGGSAEASRSLSVSARARSSSEDKITVHFINRDGETLTTKGKVGDSLLDVVVENNLDIDGFGACEGTLACSTCHLIFEDHIYEKLDAITDEENDMLDLAYGLTDRSRLGCQICLTKSMDNMTVRVPETVADARQSIDVGKTS

Variants of: B1
Assay: scaled log2 fold change in cell abundance, elesclomol vs control (0 = silent mean, 1 = nonsense mean) (scaled log2 ratio); higher = higher viability under elesclomol (loss of FDX1 cuproptosis function)
Details: glucose 10 mM
[1] = with ABC1 FDX1 KO, elesclomol 5 nM, 14 days
[2] = with HEK293T FDX1 KO, elesclomol 40 nM, 11 days
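Note: variant abundance is its share of total variant reads in each endpoint sample, from next-generation sequencing of the integrated ORF PCR-amplified out of genomic DNA.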

T131M
scaled log2 fold change [1]: 0.154

T131E
scaled log2 fold change [1]: 0.357 | scaled log2 fold change [2]: -0.395

T131V
scaled log2 fold change [1]: -0.238 | scaled log2 fold change [2]: 0.525

T131Q
scaled log2 fold change [1]: 0.134 | scaled log2 fold change [2]: 0.928

T131S
scaled log2 fold change [1]: 0.0867

T131G
scaled log2 fold change [1]: 0.277

T131W
scaled log2 fold change [1]: 0.374 | scaled log2 fold change [2]: -0.135

T131Y
scaled log2 fold change [1]: 0.17 | scaled log2 fold change [2]: -0.668

T131N
scaled log2 fold change [1]: 0.126 | scaled log2 fold change [2]: -0.681

T131H
scaled log2 fold change [1]: -0.186 | scaled log2 fold change [2]: 0.267

T131F
scaled log2 fold change [1]: -1.03 | scaled log2 fold change [2]: 0.443

T131I
scaled log2 fold change [1]: -0.0956 | scaled log2 fold change [2]: 0.347

T131D
scaled log2 fold change [1]: 0.127 | scaled log2 fold change [2]: -0.23

T131L
scaled log2 fold change [1]: -0.29 | scaled log2 fold change [2]: 0.562

T131K
scaled log2 fold change [1]: -0.138 | scaled log2 fold change [2]: 2.11

T131R
scaled log2 fold change [1]: -0.448 | scaled log2 fold change [2]: 0.487

T131C
scaled log2 fold change [1]: -0.2 | scaled log2 fold change [2]: -0.521

T131A
scaled log2 fold change [1]: -0.777 | scaled log2 fold change [2]: 0.0649

T131P
scaled log2 fold change [1]: 0.137 | scaled log2 fold change [2]: -0.104

I130W
scaled log2 fold change [1]: -0.285 | scaled log2 fold change [2]: -0.314

I130P
scaled log2 fold change [1]: -0.462 | scaled log2 fold change [2]: -0.467

I130D
scaled log2 fold change [1]: 0.59 | scaled log2 fold change [2]: 0.0795

I130F
scaled log2 fold change [1]: 0.211 | scaled log2 fold change [2]: -0.285

I130C
scaled log2 fold change [1]: -0.188 | scaled log2 fold change [2]: 1.38

I130H
scaled log2 fold change [1]: 0.0428 | scaled log2 fold change [2]: 0.239

I130M
scaled log2 fold change [1]: 0.336 | scaled log2 fold change [2]: -0.481

I130L
scaled log2 fold change [1]: -0.083 | scaled log2 fold change [2]: -0.116

I130Y
scaled log2 fold change [1]: 0.33 | scaled log2 fold change [2]: 0.102

I130A
scaled log2 fold change [1]: 0.429

I130K
scaled log2 fold change [1]: -0.203 | scaled log2 fold change [2]: 0.0187

I130R
scaled log2 fold change [1]: -0.234 | scaled log2 fold change [2]: 0.125

I130Q
scaled log2 fold change [1]: 0.0588 | scaled log2 fold change [2]: -0.458

I130V
scaled log2 fold change [1]: 0.000565 | scaled log2 fold change [2]: -0.448

I130E
scaled log2 fold change [1]: -0.051 | scaled log2 fold change [2]: -0.419

I130T
scaled log2 fold change [1]: -0.0905 | scaled log2 fold change [2]: -0.0285

I130N
scaled log2 fold change [1]: -0.0924 | scaled log2 fold change [2]: 0.234

I130G
scaled log2 fold change [1]: -0.279 | scaled log2 fold change [2]: -0.433

I130S
scaled log2 fold change [1]: 0.236 | scaled log2 fold change [2]: 0.715

D139Q
scaled log2 fold change [1]: -0.0276 | scaled log2 fold change [2]: 0.00203

D139M
scaled log2 fold change [1]: 0.045 | scaled log2 fold change [2]: 0.155

D139N
scaled log2 fold change [1]: -0.132

D139V
scaled log2 fold change [1]: 0.0114

D139T
scaled log2 fold change [1]: -0.31 | scaled log2 fold change [2]: -0.694

D139W
scaled log2 fold change [1]: 0.0888 | scaled log2 fold change [2]: -0.429

D139Y
scaled log2 fold change [1]: -0.145 | scaled log2 fold change [2]: 0.0051

D139E
scaled log2 fold change [1]: 0.147 | scaled log2 fold change [2]: 0.513

D139S
scaled log2 fold change [1]: -0.201 | scaled log2 fold change [2]: -1.37

D139P
scaled log2 fold change [1]: -0.0434 | scaled log2 fold change [2]: -0.395

D139I
scaled log2 fold change [1]: -0.652 | scaled log2 fold change [2]: 0.722

D139L
scaled log2 fold change [1]: 0.0653 | scaled log2 fold change [2]: -0.608

D139C
scaled log2 fold change [1]: -0.416 | scaled log2 fold change [2]: -0.576

D139K
scaled log2 fold change [1]: 0.896 | scaled log2 fold change [2]: 0.86

D139A
scaled log2 fold change [1]: 0.113 | scaled log2 fold change [2]: -0.357

D139G
scaled log2 fold change [1]: -0.228 | scaled log2 fold change [2]: -0.268

D139F
scaled log2 fold change [1]: 0.257 | scaled log2 fold change [2]: 0.819

D139H
scaled log2 fold change [1]: -0.062 | scaled log2 fold change [2]: -0.315

D139R
scaled log2 fold change [1]: 0.938 | scaled log2 fold change [2]: 1.09

D136P
scaled log2 fold change [1]: 0.922 | scaled log2 fold change [2]: 1.19

D136G
scaled log2 fold change [1]: 0.589 | scaled log2 fold change [2]: 0.805

D136R
scaled log2 fold change [1]: 0.898 | scaled log2 fold change [2]: 1.08
